Measurements: a protein production outcome set (Wang et al. 2014)

Assay: label from the status in PepcDB records

With “MHKVVIVGRPNVGKSSLFNRLLKKRSAVVADVPGVTRDLKEGVVETDRGRFLLVDTGGLWSGDKWEKKIQEKVDRALEDAEVVLFAVDGRAELTQADYEVAEYLRRKGKPVILVATKVDDPKHELYLGPLYGLGFGDPIPTSSEHARGLEELLEAIWERLPVRQIETEPEVAGIRLAIVGRPNAGKSSLLNAILGEERVIVSEEPGTTRDAIDVEFFFGGQRFVLVDTAGIRKRPENLVEELAIRRSLRAMDEADVVLLVVDPFQVGDRELKLANEALDRGKPVLLVITKWDLVDKEDAPKMRRLLREKLAHLDHLPRVFTSALTRQNLDRIFREAVRLHELNQTRVPTAELNRWVAVWTSRVQMPNFKGKPLKILYATQPEVAPPTFVFFVNHPEFVTRAFENYLKNRIGEDLGLREVPFRLVFRGRREE” the protein production was “not failed”.

For “MTTKLDQLTSWLKERKITEVECLISDLTGIARGKISPTNKFIAEKGMRLPESVLLQTVTGDYVEDDIYYDLLDPADIDMVCRPDENAVFLVPWAIEPTAMVIHDTFDKLGNPIELSPRNILKRVLKMYADKGWRPIVAPEMEFYLTKRSDDPDYPLQAPVGRSGRQETGRQSFSIDAANEFDPLFEDMYDWCEAQGLDLDTLIHEEGTAQMEINFRHGDALDLADQILVFKRTMREAALKHNVAATFMAKPMTGEPGSAMHLHQSIVDVKTGKNIFSNADGTMSELFLHHIGGLQKFIPEVLPLFAPNVNSFRRFLPDTSAPVNVEWGEENRTVGLRVPDSSPENRRVENRLAGADANPYLALAASLLCGYIGMVEGIKPSAQVKGRGYERRNLRLPLTIEAALERMENCKPLEQYLGSKFISGYVAVKRAEHENFKRVISSWEREFLLLS”, the protein production was “failed”.

In the case of “MDEILARAGIFQGVEPSAIAALTKQLQPVDFPRGHTVFAEGEPGDRLYIIISGKVKIGRRAPDGRENLLTIMGPSDMFGELSIFDPGPRTSSATTITEVRAVSMDRDALRSWIADRPEISEQLLRVLARRLRRTNNNLADLIFTDVPGRVAKQLLQLAQRFGTQEGGALRVTHDLTQEEIAQLVGASRETVNKALADFAHRGWIRLEGKSVLISDSERLARRAR”, the protein production is reported as “not failed”.

For “MLEDLIGKAYLESAEDRRRGDRSEEVEAIRKYIRSARRTVVPNWNAEKVDAINDVLRSFNLREAEHLQFNTNWADLTRMPAVTKALMALDISGADLVIARGRLGVPGSGSLLVIMDSRGRLLSAAMSPPHVIHSMEVREAVRSEMTHALERIGFKR”, the protein production was “not failed”.

In the case of “MKIRHVSHQAWLLFLVALLVLGSGLGLRDPHPADEPRFALVAKQMVDSGEWLFPHRGNELYSDKPPMLMWLQAAFYTLFGNLKVAFLLPSLLAALGTLVCVYDLGRRLWTRRIGLYAAYALLFTFHFTYQAKRAQIDALVVFFITFANYGLLRHLLFGGHWRWWVLGWFAAGLGTITKGVGALALLIVLPAAAASLAGWPRVRVHVRDVRFWLGPLGFLVAVSLWLVPMVMTALSAQQPEYRAYLNDILLRQTFGRYTKSWDHAQPPWYFLQVMLVMWIPTLLALPWALPAWWRRMRRRDPRYLLPLAWCVLLLVFFSIPSGKRDVYMLPALPMVCLALAPLLPGLLRKRACSRLLLAFGVLLVLVLAVFGAGLLIRSDWQARMMEGTTLILEDVRVIAWGGIAVASWGVFSLLAFSQRRPVVAVFSVLTTLWLVFGLVLMPVVNDSSSARGVMMIAGKRIGPAAELGLVAWKEQNLLMADRSVATFGFLVPWDEQLRRGIAWQVQRPRQRWLLVQEAAMFGCINRSASVFVGSSNRRAWWLVPAWAVHGACIMTQAEHDRLSKQ”, the protein production is reported as “failed”.

In the case of “MTLETAFMLPVQDAQHSFRRLLKAMSEPGVIVALHQLKRGWQPLNIATTSVLLTLADNDTPVWLSTPLNNDIVNQSLRFHTNAPLVSQPEQATFAVTDEAISSEQLNALSTGTAVAPEAGATLILQVASLSGGRMLRLTGAGIAEERMIAPQLPECILHELTERPHPFPLGIDLILTCGERLLAIPRTTHVEVC”, the protein production is reported as “not failed”.

With “MQSVSSMSSMDHFWLVIFCACVAFIPRFFPLLFFTKRKIPKWFNEWMRFVPVSLFTALVVKSVFIDSKYAVITSGNLGMIISAILVGFVAYRTRSMTLSVVIGLVSVMIFVLLIHI” the protein production was “failed”.

With “LRKQVEELFERKYAQAIKAKGPVTIPYPLFQSHVEDLYVEGLPEGIPFRRPSTYGIPRLERILLAKERIRFVIKKHELLNSTREDL” the protein production was “not failed”.

In the case of “MISEIIEFLESNFFYLHPGYTPLNTVVFGIVLGIAVLIILRMFRWLKKDPGELLVPLLPFIFLGSGARALVDNGIYPLTHLLVTPGIYILVGLTTIATLIAAVKLEETRGWDYRKLIFATGSVLAAPNLISIRHIDPVPFLSVLGVFSVFSAAFYALSLRWEFLRGRMNLPVIYAHLFDASSTYVAVDWYGYIEQHVLPSALTGLTGTAMVMFPLKMAVILTALYAIDRYVESDMDSEALKLVIFILGLAPGLRNFLSLSMAV”, the protein production is reported as “failed”.

For “MSEIEELVCIEASVTRKSTSNTVEIRESRRNKVTLGSSDSPAFPTPHLFLKNIVSFDEQSMYNLLYPRLQDPNLCSILSFKIAFEAKRVPGPLYISYDVTLTPQIFEEPDMETCGLCLLEEQHLFDMPNCAHVFHGDCIDKWLSTSNNCPLCGVEIMDDDE”, the protein production was “failed”.

With “FGLETVSENELAHSEEELRIILSESYKSGEINQSEFKYVNKIFEFDDRLAKEIMIPRTEIVSLPHDIKISEMMDIIQIEKYTRYPVEEGDKDNIIGVINIKEVLTACISGEVSVDSTISQFVNPIIHVIESAPIQDLLVKMQKERVHMAILSDEYGGTAGLVTVEDIIEEIVGEIR” the protein production was “not failed”.

For “MTETYNKEQQEAMKKMMSFQMLYMLIMLGSLFIVITPSSRDAVGNLLNVVLIPTIGFGYRYPLLSIILTGVIIGVILSIPRYFFTDWVKMGKMQNTMKAFNEAIRAAYRERDMKKINKLNSMRMQMSMDQYQLSMNTMKPLLVISVLTILFYAWLFVFVGKIPYNYIAFPWDFNINISTAHFWIMPYWIFMYFLTEIVVSYFITMIMKYIDFTLRLRRISRETSS”, the protein production was “failed”.

For “MEATEKLREKPIKSLFISYLIPAVLGMVLMSVNIVIDAVMISRGVGANGLAGVNVAIPAFSIFFSISLWIGMGGATLYSIALGENKRERARSIFTQSMTVAVVIVGILAAICLWRIEDLAYLFGANEVILPYALDYLHVLLTFGMIYVLENILSTFIRNDGNPNLAMAGLVVTAVLNIVFDYIFIFIFGWGVTGAASATILSAAIGFLVLLTHFFRKSSILKWTKFHFEWDTVKQIMVIGFPSFTAESTVAIVTIGFNIAFVQYAGEVGVASYAMVNSIHAMTLLLFFGVGAALQPIASFHYGANLSERLREGLKFAVKIAVVLGGIAIIVGLFFGKYIIGLFDVQSPELLELTLTGISLFFIQYVFLGYNIVYGEYFQSVRQTKKSVLIIMSRGLLFIIPLLWIMPKLFGINGIWLVMPVAEVMTAIIVFTMNRMKHPVPLNMAGEKEAI”, the protein production was “not failed”.

In the case of “MMSFSQIINDFIQSFSSINLGGNFKEIVTNPLTILTLIGVLIILVLLIKAKDIKFDAKMLTTIGIALALTAVLNMLKIYKFPQGGGITLGSMIPIILIAYAYGPLVGMLTGFLFGIISLFIDPYILHPVQVLFDYPIPYMALGVAGFFKNHRISGAVVAIFLKFLAHFISGVVFFGSFAPEGMSPILYSFLVNGSLIGADGLICVVLLGILPVNRLIKAISSKSVTSKYAS”, the protein production is reported as “failed”.

In the case of “MQMAGFGLIAKLRNKIRVKPNNKIQIGKNTRIRYCDIYVNGNNNQLIIHNGANLKGVSIELNGNNCLLEIGENCVIGENCFLSCRESGTKLVIGKECMFSRNVKLMTSDGHDILRDGKRINPAKSIYIGSHVWLADNVTILKGVDIGSGSIIGINSTVTKSIGQYCIAAGNPARKIKDNISWNTTLSY”, the protein production is reported as “failed”.

With “MTEIDSNLKDAQSVAVSGHVRPDGDCVGSTLAVYNYIKDYYPDIKARLYLEPSPNIFKFMQRADEIDSSYADDTVYDLFIACDCSDTGRLGSAAKYFESAKRTLCIDHHVTNGAFADTNYIFPDASSTCELVFELLPKERITIQIAECIYTGMVHDTGVFQYSCTSKKTMDIAGSLMEMGIDYSRIIDDTFYTKTFAQNKIMGQALLNAALYLNGDVILSAVSRAEMEKYDVLPKHLDGIVNQLRVTKDIKVAVFLYENEDGTYKGSLRVNGDYDVAKVASVFGGGGHVKAAGFTIEGPLEVATDRILTAIKDNI” the protein production was “failed”.

In the case of “MATFFSLALYAGSFTFILREGGIPFYYLGVFFAIAVILYLIFNSLSREYVGRAGDAIIVPVSILMVAVAFVLVYISQSIPIISVSVALFTVSLIMFYNSTVRNEVSISTNERIFMGGAGLGGFIGLIVAGVFPGKMSVLDSYMAIIMLAVGLAAVFVFFRRPTGRFSIADAFHVFVRPFNSMEKIRTIEKKLLLLAVSLDEIFVWIAIGASFPFVISAGLGSGMSRPAVMFSVAAAIIIGAALVYVFESSNIPATPFFYPVKDLILVAGLLLLSFMYPASYVAGMIFLALLPVAFIGSVRFLKSQFPSSFDFRQITSFFRNPIMVIAPLMGSILWAVSGAMLFLTAMAFAIFALVIGIIVITNPKIFKVSDPYETANN”, the protein production is reported as “failed”.

For “MDTRKNVSGAERKIWSLIRDCSGKLEGVTETSVLEVLLIVSRVLGIRKEDLFLKDLGVSPTEEKRILELVEKRASGYPLHYILGEKEFMGLSFLVEEGVFVPRPETEELVELALELIRKYGIKTVADIGTGSGAIGVSVAKFSDAIVFATDVSSKAVEIARKNAERHGVSDRFFVRKGEFLEPFKEKFASIEMILSNPPYVKSSAHLPKDVLFEPPEALFGGEDGLDFYREFFGRYDTSGKIVLMEIGEDQVEELKKIVSDTVFLKDSAGKYRFLLLNRRSS”, the protein production was “not failed”.

In the case of “MELETLFVIGMFLTFGALLMTGYPVAWVLGGTAVIWTVVGVVAVENFGANLWFDYQSSMGLVPERIWKVVSSETLVALPMFIFMGIMLDQSGVAERLMNSMVKLFGAVRGGYAVTVIVIGVLLAATTGIIGASVVLLGMLSLPVMMENKYDKGFAVGTACATGTLGILIPPSIMLVLMADRLAVPEASVGDLFMGAFFPGLMLGAMYVAYAIIRPMLQPNIAPVPEGTEKVSWAIVWDVAKAVVPTAALILGVLGSIFAGIATPTEASGVGALGALLLALMSGRLNLNVLNSSMQQTTRTAAFIFAIFLGATAFSVVLRGLGGDQVIEDALLGLPFGPYGVVLTILLGVFLLGFFLDWVEITLIILPLVAPVVQQLGFDLVWFTILFAMCLQTSFLTPPVGFALFYIKGVAPPEIKVTDIYRGVIPFIIIQLVALAIVFVVPEIATWLPGVAYD”, the protein production is reported as “failed”.

For “MSFALGQRWISDTESDLGLGTVVALDARTVTLMFAASEENRVYARSDAPVTRVIFNVGDVVDSQQGWSLQVEQVVEDQGVYTYLGTRVDTEESGVALREIFLSNQIRFNKPQDKLFAGQIDRMDNFVLRY”, the protein production was “not failed”.

With “MQYAYPLLAIFIWAGNTVINKLAVGAIFPAEIGFYRWLLAGLLFTPFMLKPVIKHWPEVRPNLWRIAILGVLGMAVYQSLAYFAASLTSATNMGIILSLMPLMSLAMAIAALGQRLTAGALVGAVLSFAGVLVVVSSGSLAALLQHGVNLGDAMMLVATLAYAIYSTLLKKWQLRLPPLVLLYLQVLVAVVVLLPLFLASPKVGPTLQNIPLVLYACLLASMLAPLAWMQAVVRLGPSRTTLFFNLLPLITALIAAVVLHEQLAWFHLVGGLLTLGGVILSERWTTVLGPLAGKPASAGQR” the protein production was “failed”.

In the case of “MSKVRVAGFSVSVDGFGAGPEQSLNDPLGKRGPEMFQWFFHTRTFRAMMGKDDGSTGIDEDYASRAMANFGAFILGRNMFGPIRGEWPDDAWKGWWGPNPPYHAPTYVLTHYPREPLVMEGGTTFHFVTGGIHQALDQAKAAAGDKDVKIGGGVATVRQYLQAGLIDELHFAVSPVVLGKGEAMFAGIDLPALDFRVTEHAASEKATHIVLAKLEHHHHHH”, the protein production is reported as “failed”.

With “MKILNIFDAVRDGTFQDFKNFYEGNINVISGNLDLNLLCMAVTNDKNPEEKLQIIKFLFAEGIDVNYATQKEKRNALHLFYFCVLRPTIEYEMEITNLFIKHGVNVNATDKYNAIPLKYAITINNLPTSDNKEMYQLLLNKGSDYNLKDGFGKSCLDYAKEYSWRNDFLDIVKEYENSKK” the protein production was “failed”.
